Reference: article PMC12903857 (Journal of the American Chemical Society, 2026)
Blank lines part the entries; values can stand above or below the binder they belong to. Non-standard residues stand in square brackets, D forms with d. No end group written: not given here. pS = N[C@@H](COP(=O)(O)O)C(=O)O

Columns and labels:
B-RAF (NanoBRET fusion) = target: T1, B-RAF (NanoBRET fusion) (UniProt P15056 1-766); assay: FRET or BRET; NanoBRET in HEK293T cells: RAF tagged with NanoLuciferase, 14-3-3σ with HaloTag/fluorescent HaloTag ligand; dose responses of compounds against DMSO; settings: partners not purified
T1 construct: B-RAF, full-length RAF client of the cell assays; Used in the 14-3-3σ/B-RAF and the B-RAF/C-RAF NanoBRET assays; the fusion partner may differ between them; The cell line is told for the first NanoBRET assays only; source: HEK293T, transfected, in cells; not shown: NanoLuciferase or HaloTag (from the NanoBRET method)
T1 sequence (P15056 whole entry, the tested form may be a part): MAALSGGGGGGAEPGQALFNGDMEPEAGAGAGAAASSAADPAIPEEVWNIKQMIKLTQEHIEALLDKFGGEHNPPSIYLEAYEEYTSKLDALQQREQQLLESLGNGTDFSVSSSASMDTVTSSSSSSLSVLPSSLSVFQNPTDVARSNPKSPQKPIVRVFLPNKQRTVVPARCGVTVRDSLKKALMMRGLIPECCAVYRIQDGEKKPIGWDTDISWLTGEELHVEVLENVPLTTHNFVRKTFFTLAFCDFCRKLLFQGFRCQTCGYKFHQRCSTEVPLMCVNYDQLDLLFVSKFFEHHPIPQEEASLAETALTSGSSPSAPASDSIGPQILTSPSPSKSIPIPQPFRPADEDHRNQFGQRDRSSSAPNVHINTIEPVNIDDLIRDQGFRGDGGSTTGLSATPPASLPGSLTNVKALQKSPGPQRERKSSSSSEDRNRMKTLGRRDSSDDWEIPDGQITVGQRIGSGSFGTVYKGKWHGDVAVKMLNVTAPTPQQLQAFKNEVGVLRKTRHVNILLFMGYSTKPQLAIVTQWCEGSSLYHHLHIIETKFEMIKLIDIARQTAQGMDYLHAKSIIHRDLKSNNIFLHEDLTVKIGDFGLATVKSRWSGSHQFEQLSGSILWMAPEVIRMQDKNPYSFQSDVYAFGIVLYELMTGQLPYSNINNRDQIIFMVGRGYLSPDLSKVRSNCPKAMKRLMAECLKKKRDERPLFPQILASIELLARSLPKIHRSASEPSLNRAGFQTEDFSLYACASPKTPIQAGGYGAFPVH

A-RAF (NanoBRET fusion) = target: T2, A-RAF (NanoBRET fusion) (UniProt P10398 1-606); assay: as above; settings: partners not purified
T2 construct: A-RAF, full-length RAF client of the cell assays; Used in the 14-3-3σ/A-RAF and the A-RAF/C-RAF NanoBRET assays; the fusion partner may differ between them; The cell line is told for the first NanoBRET assays only; source: HEK293T, transfected, in cells; not shown: NanoLuciferase or HaloTag (from the NanoBRET method)

[1] = target: T3, C-RAF-NanoLuciferase (Nluc) (UniProt P04049 1-648); assay: as above; settings: partners not purified
T3 construct: C-RAF, full-length RAF client of the cell assays; source: HEK293T, transfected, in cells

14-3-3σ = target: T4, 14-3-3σ (UniProt P31947 1-248); assay: fluorescence polarisation; fluorescence anisotropy protein titration: 14-3-3σ titrated into 10 nM labeled peptide in the presence of DMSO; apparent; settings: both partners purified
T4 construct: 14-3-3σ (sigma isoform of 14-3-3, SFN), the protein titrated in the fluorescence anisotropy assays; With the covalent compounds of the FA assays C38 becomes modified in the sample; also called sigma isoform
T4 sequence (looked up): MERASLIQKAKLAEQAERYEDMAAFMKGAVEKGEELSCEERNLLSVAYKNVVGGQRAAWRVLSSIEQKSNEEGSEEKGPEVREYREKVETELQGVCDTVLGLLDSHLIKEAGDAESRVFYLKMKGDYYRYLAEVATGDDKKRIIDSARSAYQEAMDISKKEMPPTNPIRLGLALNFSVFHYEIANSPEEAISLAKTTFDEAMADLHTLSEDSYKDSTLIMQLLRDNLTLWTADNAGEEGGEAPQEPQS

fold increase (BRET signal) with 22 (B-RAF (NanoBRET fusion)): 1.4 fold
fold increase (BRET signal) with 23 (B-RAF (NanoBRET fusion)): 1.4 fold
fold increase (BRET signal) with 10 μM 22 (A-RAF (NanoBRET fusion)): 1.6 fold
fold increase (BRET signal) with 10 μM 23 (A-RAF (NanoBRET fusion)): 1.7 fold
fold stabilization (BRET signal) with 22 against DMSO [1]: 1.5 fold
fold stabilization (BRET signal) with 23 against DMSO [1]: 1.6 fold
fold stabilization (BRET signal) with 70 against DMSO [1]: 1.3 fold
fold stabilization (BRET signal) with 78 against DMSO [1]: 1.4 fold
B1: 14-3-3σ-Halotag (HT) (natural protein, UniProt P31947 1-248, looked up)
chain: T4 sequence (looked up)
modifications: fluorescent HaloTag ligand on the HaloTag
notes: 14-3-3σ, full length, for NanoBRET; also called full-length 14-3-3σ; source: HEK293T, transfected, in cells

Kd (14-3-3σ): 8.43 µM
B2: FAM-labeled C-RAF259 peptide (10-mer) (peptide)
chain: QRST[pS]TPNVH
modifications: also: FAM label, site not given here
